Reference: US20250115664A1 (Bristol-Myers Squibb, published 2025)
Positions count from the first letter of the chain named. Numbers in names are those of the source.

Assays:
[1] = biological target: T1, human TIM3 on cells (transfected CHO cells, activated human T cells, Th1 cells, TILs) (human, UniProt Q8TDQ0 22-300); assay: flow cytometry, human TIM3 positive cells (activated human T cells per paragraph 648), GMFI (PE); EC50 unit inferred, unit taken from the axis label ug/mL
T1 construct: also called hTIM3

[2] = biological target: T2, cynomolgus TIM3 on cells (transfected CHO cells, activated cyno T cells, cyno spleen) (cynomolgus); assay: saturation binding of 125I-labeled antibody to CHO cells with cyno TIM3 (CHOcyno TIM3 25K), table row Kd, column Total; the cell has no unit, nM is taken from the concentration axis
T2 construct: also called cyno TIM3
T2 chain: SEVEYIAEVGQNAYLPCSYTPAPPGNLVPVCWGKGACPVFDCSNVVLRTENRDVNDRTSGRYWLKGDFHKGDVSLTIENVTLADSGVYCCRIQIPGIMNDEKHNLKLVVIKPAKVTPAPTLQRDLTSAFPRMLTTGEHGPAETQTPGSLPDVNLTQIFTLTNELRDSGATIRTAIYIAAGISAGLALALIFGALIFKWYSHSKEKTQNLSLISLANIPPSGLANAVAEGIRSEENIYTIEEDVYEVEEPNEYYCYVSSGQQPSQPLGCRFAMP

[3] = biological target: T1, human TIM3 on cells (transfected CHO …); assay: saturation binding of 125I-labeled antibody to CHO cells with human TIM3 (CHOhu TIM3 25K), table row Kd, column Specific Binding; the cell has no unit, nM is taken from the concentration axis and the box below
[4] = biological target: T1, human TIM3 on cells (transfected CHO …); assay: saturation binding of 125I-labeled antibody to CHO cells with human TIM3 (CHOhu TIM3 25K), table row Kd, column Total; the cell has no unit, nM is taken from the concentration axis
[5] = biological target: T3, Human TIM3-IgV (Example 22) (human, UniProt Q8TDQ0 22-130); assay: SPR Biacore T200, 37 C; antibody captured on anti-hFc chip, TIM3 protein as analyte, single cycle kinetics, 1:1 model
T3 construct: also called hTim3-IgV; hTIM3-IgV

B1: anti-TIM3 monoclonal antibody 13A3 (antibody, V domains shown)
VH: QLQLQESGPGLVKPSETLSLTCTVSGGSISSRSYYWGWIRQPPGKGLEWIGSIYYSGFTYYNPSLKSRVTISVDTSKNQFSLKLSSVTAADTAVYYCATGGPYGDYAHWFDPWGQGTLVTVSS
VL: not shown
notes: also called 13A3-g4
B1 showed an EC50 [1] of 0.0116 µg/mL.

B2: TIM3.18·IgG1.3 (antibody, V domains shown)
VH: B1 VH with N62Q, D111E
VL: not shown
notes: also called TIM3.18 (13A3) IgG1.3f (N60Q/D101E)
B2 gave a Kd [2] of 0.581 nM, a Kd [3] of 0.262 nM and a Kd [4] of 0.278 nM.

B3: Tim3.18 (13A3 VH-N60Q-D101E), constant region not stated (antibody, V domains shown)
VH: B1 VH with N62Q, D111E
VL: not shown
With B3 the Kd [5] was 7.1 nM.

B4: anti-TIM3 monoclonal antibody 23B3 (antibody, V domains shown)
VH: QVQLVGSGGGLVKPGGSLRLSCAASGFTFSDYYMSWIRQAPGKGLEWVSFISGSGSIIYYADSVKGRFTISRDNAKNSLDLQMNSLRAEDTAVYYCARDGMVRGMNFYGMDVWGQGTTVTVSS
VL: not shown
For B4, the EC50 [1] was 0.0229 µg/mL.

B5: TIM3.25 (23B3 VH-G6E-D79Y) (antibody, V domains shown)
VH: B4 VH with G6E, D80Y
VL: not shown
For B5, the Kd [5] was 2.2 nM, the koff [5] was 0.0013 s⁻¹ and the kon [5] was 600000 M⁻¹ s⁻¹.

B6: anti-TIM3 monoclonal antibody 14H7 (antibody, V domains shown)
VH: QVHLVESGGGLVKPGGSLRLSCTAFSDYYMSWIRQAPGKGLEWLSYISNSGSIIYYADSVKGRFTISRDNAKNSVYLQMNSLRAEDTAVYYCARGRIGFFDYWGPGTLVTVSS
VL: not shown
For B6, the EC50 [1] was 0.0139 µg/mL.

B7: TIM3.24 (14H7) (antibody, V domains shown)
VH: B6 VH
VL: not shown
notes: also called 14H7/TIM3.24
B7 was tested, and the Kd [5] was 14 nM, the koff [5] was 0.011 s⁻¹ and the kon [5] was 780000 M⁻¹ s⁻¹.
